Results from article PMC4599368 (Cell reports, 2015).

B1: EBOV NP residues 1–457 (NPNTD) (domain or fragment)
chain: MDSRPQKIWMAPSLTESDMDYHKILTAGLSVQQGIVRQRVIPVYQVNNLEEICQLIIQAFEAGVDFQESADSFLLMLCLHHAYQGDYKLFLESGAVKYLEGHGFRFEVKKRDGVKRLEELLPAVSSGKNIKRTLAAMPEEETTEANAGQFLSFASLFLPKLVVGEKACLEKVQRQIQVHAEQGLIQYPTAWQSVGHMMVIFRLMRTNFLIKFLLIHQGMHMVAGHDANDAVISNSVAQARFSGLLIVKTVLDHILQKTERGVRLHPLARTAKVKNEVNSFKAALSSLAKHGEYAPFARLLNLSGVNNLEHGLFPQLSAIALGVATAHGSTLAGVNVGEQYQQLREAATEAEKQLQQYAESRELDHLGLDDQEKKILMNFHQKKNEISFQQTNAMVTLRKERLAKLTEAITAASLPKTSGHYDDDDDIPFPGPINDDDNPGHQDDDPTDSQDTTIPDV

Tests used:
[1] = tested on: ΔNPNTD (NP 25-457) (Zaire ebolavirus (EBOV)); experiment: filter binding
SEC = target: the molecule itself; experiment: SEC

Molecule | Kd [1] | binding result (SEC)
20 nt ssRNA | 620 nM | 
B1 |  | binds
